Measured values as given in publication doi:10.1101/2021.10.01.462756 (bioRxiv, 2021).

T1: Ddc1 (S. cerevisiae, UniProt Q08949 1-612)
T1 sequence: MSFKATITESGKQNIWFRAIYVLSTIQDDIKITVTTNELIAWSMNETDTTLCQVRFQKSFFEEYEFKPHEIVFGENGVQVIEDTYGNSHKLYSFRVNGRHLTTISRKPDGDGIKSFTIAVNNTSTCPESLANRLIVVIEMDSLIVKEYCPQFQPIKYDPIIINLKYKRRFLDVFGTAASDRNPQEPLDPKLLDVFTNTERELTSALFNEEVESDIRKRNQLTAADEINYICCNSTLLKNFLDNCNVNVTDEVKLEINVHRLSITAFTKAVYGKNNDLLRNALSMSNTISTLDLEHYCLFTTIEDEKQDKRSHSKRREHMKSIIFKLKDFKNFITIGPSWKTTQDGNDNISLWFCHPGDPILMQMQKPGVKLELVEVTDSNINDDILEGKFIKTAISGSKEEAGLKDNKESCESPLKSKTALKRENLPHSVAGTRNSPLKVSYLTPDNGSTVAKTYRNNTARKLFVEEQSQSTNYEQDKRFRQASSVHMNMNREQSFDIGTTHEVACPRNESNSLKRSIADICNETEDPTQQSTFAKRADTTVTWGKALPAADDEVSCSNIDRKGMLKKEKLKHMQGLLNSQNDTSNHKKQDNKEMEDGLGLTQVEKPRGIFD

T2: His-PK-Mec3 (S. cerevisiae, UniProt Q02574 1-474)
T2 sequence: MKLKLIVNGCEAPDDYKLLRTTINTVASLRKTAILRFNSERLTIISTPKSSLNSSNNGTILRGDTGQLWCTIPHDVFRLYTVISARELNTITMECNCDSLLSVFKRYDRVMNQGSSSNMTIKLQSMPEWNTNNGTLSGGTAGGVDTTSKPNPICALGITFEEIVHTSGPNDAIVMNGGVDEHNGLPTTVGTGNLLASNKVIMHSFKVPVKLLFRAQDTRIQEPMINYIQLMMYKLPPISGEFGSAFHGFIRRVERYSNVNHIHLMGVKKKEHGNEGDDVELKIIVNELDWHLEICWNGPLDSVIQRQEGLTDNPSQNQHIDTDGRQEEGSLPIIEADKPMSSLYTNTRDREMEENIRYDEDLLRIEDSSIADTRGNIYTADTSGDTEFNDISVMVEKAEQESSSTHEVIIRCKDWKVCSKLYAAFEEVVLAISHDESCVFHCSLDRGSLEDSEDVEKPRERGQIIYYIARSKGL

B1: 9-1-1 clamp (Ddc1–Mec3–Rad17) (complex)
chain 1: T1 sequence
chain 2: T2 sequence
chain 3: MRINSELANKFSASTVHLEHITTALSCLTPFGSKDDVLIFIDADGLSFVRENNHVIKIQLLLSRELFMSYSYRNETEDHMKLCVKINHILDSVSVMNRNSDDIVECTLSYDGHGSPFVLIFEDSFISERVEYSTYLIKDFDTNGLELDRERISFEAIIKGEALHSALKDLKEIGCKECYVYAKTEANDENVFALISKSQLGFSKIKLPSNRSILEKLQVFDGDSTTVIDGFAVIGFFDFTSFDKIRKSTKIASKVLFRMDVHGVLSVNILSQTDDVIITDTTRPSNNRPGSIRQLQLPKDYPGIVIEVCMLEKESIDEAAQTEIELLMETNELGNRNSFKKSTIRKRYGTDKGNETSNDNLLQLNGKKIKLPSEEENNKNRESEDEENHCKYPTKDIPIFF
B2: Rad17 (natural protein)
chain: B1 chain 3

What was measured:
Assay in all cases: cryo-EM structure
[1] = target: Rad24-RFC clamp loader (Rad24, Rfc2, Rfc3, Rfc4, Rfc5) (S. cerevisiae, UniProt P32641;P40348;P38629;P40339;P38251)
Ddc1 = target: T1, Ddc1
His-PK-Mec3 = target: T2, His-PK-Mec3

Row | Binder | binding result [1] | binding result (Ddc1) | binding result (His-PK-Mec3)
1 | B1 | binds | – | –
2 | B2 | – | binds | binds
